Test [1] has as its target T1, 细胞内源的HPV16E7蛋白 (HPV16, UniProt P03129 2-98).
T1 construct: Endogenous, intracellular HPV16 E7 in fixed and permeabilised CaSki cells (ICC) or in formalin-fixed paraffin sections of cervical tissue (IHC); as printed it has no initial Met; also called 宫颈癌细胞株CaSki表达的HPV16E7蛋白; 宫颈癌组织中的HPV16E7蛋白
T1 sequence: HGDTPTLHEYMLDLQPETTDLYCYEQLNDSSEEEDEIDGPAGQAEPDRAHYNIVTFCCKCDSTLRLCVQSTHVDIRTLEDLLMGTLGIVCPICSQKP
Kind of test: immunocytochemistry on fixed, permeabilised CaSki cells (C-33A as negative control).

In test [2] the target is T2, 多肽HPV16E7-27 (HPV16).
T2 construct: Peptide of HPV16 E7
T2 peptide: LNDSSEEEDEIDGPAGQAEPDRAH
Nature of the test: ELISA, peptide coated at 2μg/ml.

Test [3] has as its target T3, 多肽HPV16E7-1 (HPV16).
T3 construct: Peptide of HPV16 E7
T3 peptide: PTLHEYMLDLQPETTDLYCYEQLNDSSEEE
Nature of the test: ELISA, peptide coated at 2μg/ml.

In test [4] the target is T4, 多肽HPV16E7-5 (HPV16).
T4 construct: Peptide of HPV16 E7
T4 peptide: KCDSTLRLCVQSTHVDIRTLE
Kind of test: ELISA, peptide coated at 2μg/ml. Background: In an ELISA, binding on a coated surface is turned into a signal by an enzyme label.

The target in test [5] is T5, 多肽His-Vac (HPV16).
T5 peptide: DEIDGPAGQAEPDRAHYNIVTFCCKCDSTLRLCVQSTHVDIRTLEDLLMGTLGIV
Nature of the test: ELISA, peptide coated at 2μg/ml.

Test [6] has as its target T6, 重组蛋白His-HPV16E7 (HPV16, UniProt P03129 2-98).
T6 construct: also called His-HPV16E7融合蛋白; His-HPV16E7重组蛋白; not shown: His tag
T6 sequence: T1 sequence
Nature of the test: indirect ELISA, antigen coated at 0.5μg/ml, antibody 0.1μg/ml.

For test [7], the target named is T7, His-HPV18E7融合蛋白 (HPV18, UniProt P06788 1-105).
T7 construct: not shown: His tag
T7 chain: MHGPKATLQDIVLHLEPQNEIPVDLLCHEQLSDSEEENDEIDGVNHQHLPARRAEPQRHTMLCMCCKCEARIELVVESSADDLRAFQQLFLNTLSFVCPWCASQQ
The test is described as above.

B1: 兔源单克隆抗体RAB-034 (antibody, V domains shown)
VH: QSLEESGGRLVTPGTPLTLTCTVSGIDLSSYAMGWVRQAPGEGLDWIGSIGSSGRTYYANWAKGRFTISKTSSTTVDLKMTSLTTEDTATYFCARGVVNRSDIWGPGTLVTVSS
VL: DPMLTQTASSVSAAVGGTVTISCQSSQSVYDNNWLGWYQQKPGQPPKLLIYGASNLESGVPSRFKGSGSGTQFTLTISDVQCDDAATYYCAGGYSGNRYVFGGGTEVVVK
notes: also called 抗HPV16E7兔单抗RAB-034
On to B1, for which the binding result in test [1] was “binds”; in test [2], “no binding (tested: 1μg/ml)”; in test [3] it was “no binding (tested: 1μg/ml)”; in test [4] it was “no binding (tested: 1μg/ml)”; in test [5] it was “no binding (tested: 1μg/ml)”; in test [6] it was “binds”. Further, the binding result in test [7] was “binds”.

The values above are taken from patent CN105131113A (ATTOBIO BIOPHARMACEUTICAL SUZHOU CO LTD, dated 2015).
